The record followed here is PMC9507964, “Structure of CRL7^FBXW8 reveals coupling with CUL1–RBX1/ROC1 for multi-cullin-RING E3-catalyzed ubiquitin ligation” (Nature Structural & Molecular Biology, 2022).

Assay [1] deals with T1, FBXW8 (human, UniProt Q8N3Y1 1-598).
T1 construct: FBXW8, human, full length; source: HEK293S, co-expressed (BacMam), purified within CRL7^FBXW8; not shown: GFP, N-terminal, cleaved
T1 sequence (looked up): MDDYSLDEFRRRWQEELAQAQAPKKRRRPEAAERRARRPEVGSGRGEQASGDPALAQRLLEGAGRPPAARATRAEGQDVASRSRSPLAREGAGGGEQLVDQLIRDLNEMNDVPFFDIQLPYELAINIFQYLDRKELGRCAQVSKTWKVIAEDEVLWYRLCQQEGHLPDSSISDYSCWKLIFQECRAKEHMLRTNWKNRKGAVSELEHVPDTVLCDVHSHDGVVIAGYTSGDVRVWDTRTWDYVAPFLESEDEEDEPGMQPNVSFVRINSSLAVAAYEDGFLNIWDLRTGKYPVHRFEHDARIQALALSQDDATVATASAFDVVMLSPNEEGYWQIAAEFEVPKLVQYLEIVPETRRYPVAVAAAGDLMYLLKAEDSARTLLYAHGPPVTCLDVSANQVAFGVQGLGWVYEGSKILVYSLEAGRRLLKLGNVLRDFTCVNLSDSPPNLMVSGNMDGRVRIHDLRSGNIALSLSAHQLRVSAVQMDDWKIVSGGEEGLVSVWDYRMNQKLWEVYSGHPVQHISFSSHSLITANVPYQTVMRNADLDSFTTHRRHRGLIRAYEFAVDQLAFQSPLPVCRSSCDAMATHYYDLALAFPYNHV
Put plainly: cryo-EM structure; purified CRL7^FBXW8 and CUL1 N-terminal region mixed 15 min before plunging, on ice; Glacios 200 kV. As to conditions: both partners purified.

In assay [2] the target is T2, CUL1–RBX1 (full-length CUL1) (human, UniProt Q13616 1-776; P62877 5-108).
T2 construct: CUL1, human, full length; RBX1, human, residue 5 to C terminus; Unneddylated form used in the SEC experiments; also called full-length CUL1–RBX1; not shown: GST, N-terminal, cleaved
Nature of the assay: SEC; comigration; proteins mixed at equimolar 1.5 μM for at least 10 min on ice; Superose 6 5/150GL; 50 mM Tris pH 7.5, 150 mM NaCl, 1 mM DTT; fractions on Coomassie-stained SDS–PAGE. As to conditions: both partners purified.

B1: CUL1 N-terminal region (residues 1–410) (domain or fragment)
chain: not shown
notes: CUL1, human, residues 1 to 410 encompassing the CR1, CR2 and CR3 domains; Expressed as a GST-thrombin or GST-TEV fusion; also called CUL1^NTD; N-terminal region of CUL1 (CR1, CR2 and CR3 domains)
Turning to B1, the binding result in assay [1] is “binds”.

B2: SKP1^ΔΔ–β-TRCP1 (monomeric form) complex (complex, human)
chain 1: MLQRDFITALPARGLDHIAENILSYLDAKSLCAAELVCKEWYRVTSDGMLWKKLIERMVRTDSLWRGLAERRGWGQYLFKNKPPDGNAPPNSFYRALYPKIIQDIETIESNWRCGRHSLQRIHCRSETSKGVYCLQYDDQKIVSGLRDNTIKIWDKNTLECKRILTGHTGSVLCLQYDERVIITGSSDSTVRVWDVNTGEMLNTLIHHCEAVLHLRFNNGMMVTCSKDRSIAVWDMASPTDITLRRVLVGHRAAVNVVDFDDKYIVSASGDRTIKVWNTSTCEFVRTLNGHKRGIACLQYRDRLVVSGSSDNTIRLWDIECGACLRVLEGHEELVRCIRFDNKRIVSGAYDGKIKVWDLVAALDPRAPAGTLCLRTLVEHSGRVFRLQFDEFQIVSSSHDDTILIWDFLNDPAAQAEPPRSPSRTYTYISR
chain 2: MPSIKLQSSDGEIFEVDVEIAKQSVTIKTMLEDLGMDPVPLPNVNAAILKKVIQWCTHHKDDPPDDIPVWDQEFLKVDQGTLFELILAANYLDIKGLLDVTCKTVANMIKGKTPEEIRKTFNIKNDFTEEEEAQVRKENQWCEEK
notes: β-TRCP1, human, monomeric form, from residue 175 to C terminus; also called SKP1-β-TRCP1; SKP-β-TRCP1; not shown: His-MBP, N-terminal, cleaved
For B2, in assay [2], the binding result is on record as “binds”.
